Assay results reported in US5362864, “Trans-activating factor-1” (The Trustees of the Rockefeller University).

Columns and labels:
[1] = target: T1, truncated TAF-1 (p5a product from Met-22) (Nicotiana tabacum, UniProt Q99142 SEQ:1-244); assay: competition; 3 ng gave about 50% competition against WT probe; 200 ng needed for WT; direct EMSA also stronger than WT (FIG. 4A); details: tags: expressed from pSK(-) lacZ promoter in E. coli, ammonium sulfate fraction; chain copies: 2 (inferred)
T1 sequence: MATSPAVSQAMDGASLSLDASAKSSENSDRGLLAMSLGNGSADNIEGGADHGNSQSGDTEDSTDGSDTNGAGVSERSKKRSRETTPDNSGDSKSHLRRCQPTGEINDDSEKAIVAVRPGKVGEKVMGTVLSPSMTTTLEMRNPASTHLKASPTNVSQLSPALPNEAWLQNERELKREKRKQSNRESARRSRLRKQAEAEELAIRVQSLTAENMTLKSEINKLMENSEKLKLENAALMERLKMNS
Text: (§1) FIG. 4A. TAF-1 preferentially binds to a perfect palindromic sequence. Tetramers of WT motif I, the mutant M1, and the perfect palindrome (PA), […], (SEQ. ID NO: 9) were used as probes in gel mobility shift-assays with E. coli extracts containing the truncated TAF-1. F, free probe; NC, non-specific complex. The specific complexes, indicated with arrowheads, have a slower mobility as compared to the non-specific complex. FIG. 4B. Relative binding affinities of TAF-1 to motif I (WT) and related sequences. WT motif I tetramer was used as a probe in gel mobility shift assays with E. coli extracts containing the truncated TAF-1. Different concentrations of tetramers of mutants M1 to M5, as well as the tetramer of the perfect palindromic sequence (PA) were tested for their ability to compete with the WT sequence for TAF-1. For WT, PA, M1 and M5, the concentrations that gave approximately 50% competition were used in the experiments shown here. Higher concentrations were used for mutants M2, M3 and M4. Comp., Competitor. FIG. 4C. Nucleotide sequences of WT (SEQ. ID NO: 11), mutants M1 to M5 (SEQ. ID NOS: 10, 13, 14, 15 and 12), and the perfect palindrome, PA (SEQ. ID NO: 9). In this figure, the WT motif I of the tetramer is shown with the TACGTG hexanucleotide as the core sequence. The 5' nucleotide G of the motif is derived from the 3' nucleotide of the preceding motif in the tetramer. […]

[2] = target: T1, truncated TAF-1 (p5a product from …); assay: competition; 60 ng gave about 50% competition; increased affinity also in direct EMSA; details: tags: expressed from pSK(-) lacZ promoter in E. coli, ammonium sulfate fraction; chain copies: 2 (inferred)
Text: as §1

[3] = target: T1, truncated TAF-1 (p5a product from …); assay: competition; self competition; direct EMSA complexes in FIG. 2D; poly(dI-dC); details: tags: expressed from pSK(-) lacZ promoter in E. coli, ammonium sulfate fraction; chain copies: 2 (inferred); label: fill-in labelled
Text: as §1

B1: PA perfect palindrome (G-box) tetramer (dsDNA)
DNA 1: GCCACGTGGCGCCACGTGGCGCCACGTGGCGCCACGTGGC
DNA 2: GCCACGTGGCGCCACGTGGCGCCACGTGGCGCCACGTGGC
B1 gave a binding signal [1] of ~66 fold vs WT.

B2: M1 tetramer (dsDNA)
DNA 1: CAACGTGGCGCAACGTGGCGCAACGTGGCGCAACGTGGCG
DNA 2: CGCCACGTTGCGCCACGTTGCGCCACGTTGCGCCACGTTG
Work on B2 yielded a binding signal [2] of 3.3 fold vs WT.

B3: motif I WT tetramer (dsDNA)
DNA 1: GTACGTGGCGGTACGTGGCGGTACGTGGCGGTACGTGGCG
DNA 2: CGCCACGTACCGCCACGTACCGCCACGTACCGCCACGTAC
In the case of B3, the IC50 [3] is reported as ~200 ng.
